Earlier results on 1 substance are cited in publication PMC11764136.

The target of this data set is amyloid-β oligomers Aβ (Homo sapiens) (UniProt P05067).

For PrPC (from UniProt P04156), the Kd is 4 nM.
